Results: the supplement of paper PMC11246515
± gives the standard deviation of the averaged measurements.

Test: total protein half-life in vivo (active degradation + dilution); higher = more stable protein
[1] = E. coli NCM3722 delta-clpP delta-lon delta-hslV, growth: N-lim chemostat, doubling time 6 h
[2] = E. coli NCM3722 delta-clpP, growth: N-lim chemostat, doubling time 6 h
[3] = E. coli NCM3722 delta-hslV, growth: N-lim chemostat, doubling time 6 h
[4] = E. coli NCM3722 delta-lon, growth: N-lim chemostat, doubling time 6 h
[5] = E. coli NCM3722 delta-smpB, growth: N-lim chemostat, doubling time 6 h
[6] = wild type E. coli NCM3722, growth: C-lim chemostat, doubling time 3 h
[7] = wild type E. coli NCM3722, growth: C-lim chemostat, doubling time 6 h
[8] = wild type E. coli NCM3722, growth: C-lim chemostat, doubling time 12 h
[9] = wild type E. coli NCM3722, growth: N-lim chemostat, doubling time 6 h
[10] = wild type E. coli NCM3722, growth: N-lim chemostat, doubling time 12 h
[11] = wild type E. coli NCM3722, growth: P-lim chemostat, doubling time 6 h
[12] = wild type E. coli NCM3722, growth: P-lim chemostat, doubling time 12 h

Row | Sequence | total protein half-life in vivo [1] [h] | total protein half-life in vivo [2] [h] | total protein half-life in vivo [3] [h] | total protein half-life in vivo [4] [h] | total protein half-life in vivo [5] [h] | total protein half-life in vivo [6] [h] | total protein half-life in vivo [7] [h] | total protein half-life in vivo [8] [h] | total protein half-life in vivo [9] [h] | total protein half-life in vivo [10] [h] | total protein half-life in vivo [11] [h] | total protein half-life in vivo [12] [h]
1 | MALWGGRFTQAADQRFKQFNDSLRFDYRLAEQDIVGSVAWSKALVTVGVLTAEEQAQLEEALNVLLEDVRARPQQILESDAEDIHSWVEGKLIDKVGQLGKKLHTGRSRNDQVATDLKLWCKDTVSELLTANRQLQSALVETAQNNQDAVMPGYTHLQRAQPVTFAHWCLAYVEMLARDESRLQDALKRLDVSPLGCGALAGTAYEIDREQLAGWLGFASATRNSLDSVSDRDHVLELLSAAAIGMVHLSRFAEDLIFFNTGEAGFVELSDRVTSGSSLMPQKKNPDALELIRGKCGRVQGALTGMMMTLKGLPLAYNKDMQEDKEGLFDALDTWLDCLHMAALVLDGIQVKRPRCQEAAQQGYANATELADYLVAKGVPFREAHHIVGEAVVEAIRQGKPLEDLPLSELQKFSQVIDEDVYPILSLQSCLDKRAAKGGVSPQQVAQAIAFAQARLG | 4.96 ± 1 | 4 ± 0.055 | 3.462 ± 0.011 | 4.05 ± 0.2 | 3.65 ± 0.28 | 3.02 ± 0.055 | 5.59 ± 0.33 | 10.5 ± 0.22 | 3.77 ± 0.17 | 5.76 ± 0.05 | 5.29 ± 0.76 | 11 ± 0.68
2 | MAMFGFPHWQLKSTSTESGVVAPDERLPFAQTAVMGVQHAVAMFGATVLMPILMGLDPNLSILMSGIGTLLFFFITGGRVPSYLGSSAAFVGVVIAATGFNGQGINPNISIALGGIIACGLVYTVIGLVVMKIGTRWIERLMPPVVTGAVVMAIGLNLAPIAVKSVSASAFDSWMAVMTVLCIGLVAVFTRGMIQRLLILVGLIVACLLYGVMTNVLGLGKAVDFTLVSHAAWFGLPHFSTPAFNGQAMMLIAPVAVILVAENLGHLKAVAGMTGRNMDPYMGRAFVGDGLATMLSGSVGGSGVTTYAENIGVMAVTKVYSTLVFVAAAVIAMLLGFSPKFGALIHTIPAAVIGGASIVVFGLIAVAGARIWVQNRVDLSQNGNLIMVAVTLVLGAGDFALTLGGFTLGGIGTATFGAILLNALLSRKLVDVPPPEVVHQEP |  | 4.84 ± 1.8 | 3.33 ± 1.9 | > 8 | 3.66 ± 0.6 |  |  |  | 3.82 | 5.58 ± 0.86 |  | 
3 | MAMPLSLLIGLRFSRGRRRGGMVSLISVISTIGIALGVAVLIVGLSAMNGFERELNNRILAVVPHGEIEAVDQPWTNWQEALDHVQKVPGIAAAAPYINFTGLVESGANLRAIQVKGVNPQQEQRLSALPSFVQGDAWRNFKAGEQQIIIGKGVADALKVKQGDWVSIMIPNSNPEHKLMQPKRVRLHVAGILQLSGQLDHSFAMIPLADAQQYLDMGSSVSGIALKMTDVFNANKLVRDAGEVTNSYVYIKSWIGTYGYMYRDIQMIRAIMYLAMVLVIGVACFNIVSTLVMAVKDKSGDIAVLRTLGAKDGLIRAIFVWYGLLAGLFGSLCGVIIGVVVSLQLTPIIEWIEKLIGHQFLSSDIYFIDFLPSELHWLDVFYVLVTALLLSLLASWYPARRASNIDPARVLSGQ | 5.8 ± 0.74 | 6.23 ± 0.16 | 5.66 ± 0.51 | 5.4 ± 0.27 | 5.77 ± 0.5 | 3.32 ± 0.27 | 5.759 ± 0.033 |  | 5.94 ± 0.43 | 13.9 ± 2.2 | 6.023 ± 0.042 | 12.2 ± 0.26
4 | MANFFIDRPIFAWVLAILLCLTGTLAIFSLPVEQYPDLAPPNVRVTANYPGASAQTLENTVTQVIEQNMTGLDNLMYMSSQSSGTGQASVTLSFKAGTDPDEAVQQVQNQLQSAMRKLPQAVQNQGVTVRKTGDTNILTIAFVSTDGSMDKQDIADYVASNIQDPLSRVNGVGDIDAYGSQYSMRIWLDPAKLNSFQMTAKDVTDAIESQNAQIAVGQLGGTPSVDKQALNATINAQSLLQTPEQFRDITLRVNQDGSEVRLGDVATVEMGAEKYDYLSRFNGKPASGLGVKLASGANEMATAELVLNRLDELAQYFPHGLEYKVAYETTSFVKASIEDVVKTLLEAIALVFLVMYLFLQNFRATLIPTIAVPVVLMGTFSVLYAFGYSVNTLTMFAMVLAIGLLVDDAIVVVENVERIMSEEGLTPREATRKSMGQIQGALVGIAMVLSAVFVPMAFFGGTTGAIYRQFSITIVAAMVLSVLVAMILTPALCATLLKPLKKGEHHGQKGFFAWFNQMFNRNAERYEKGVAKILHRSLRWIVIYVLLLGGMVFLFLRLPTSFLPLEDRGMFTTSVQLPSGSTQQQTLKVVEQIEKYYFTHEKDNIMSVFATVGSGPGGNGQNVARMFIRLKDWSERDSKTGTSFAIIERATKAFNQIKEARVIASSPPAISGLGSSAGFDMELQDHAGAGHDALMAARNQLLALAAENPELTRVRHNGLDDSPQLQIDIDQRKAQALGVAIDDINDTLQTAWGSSYVNDFMDRGRVKKVYVQAAAPYRMLPDDINLWYVRNKDGGMVPFSAFATSRWETGSPRLERYNGYSAVEIVGEAAPGVSTGTAMDIMESLVKQLPNGFGLEWTAMSYQERLSGAQAPALYAISLLVVFLCLAALYESWSVPFSVMLVVPLGVIGALLATWMRGLENDVYFQVGLLTVIGLSAKNAILIVEFANEMNQKGHDLFEATLHACRQRLRPILMTSLAFIFGVLPMATSTGAGSGGQHAVGTGVMGGMISATILAIYFVPLFFVLVRRRFPLKPRPE |  | 6.56 ± 0.62 | 6.24 ± 0.45 | 6.05 ± 0.57 | 5.38 ± 0.37 |  |  | 12 ± 2.9 | 6.06 ± 0.82 | 12.3 ± 0.86 | 6.36 ± 0.17 | 
5 | MANGWTGNILRVNLTTGNITLEDSSKFKSFVGGMGFGYKIMYDEVPPGTKPFDEANKLVFATGPLTGSGAPCSSRVNITSLSTFTKGNLVVDAHMGGFFAAQMKFAGYDVIIIEGKAKSPVWLKIKDDKVSLEKADFLWGKGTRATTEEICRLTSPETCVAAIGQAGENLVPLSGMLNSRNHSGGAGTGAIMGSKNLKAIAVEGTKGVNIADRQEMKRLNDYMMTELIGANNNHVVPSTPQSWAEYSDPKSRWTARKGLFWGAAEGGPIETGEIPPGNQNTVGFRTYKSVFDLGPAAEKYTVKMSGCHSCPIRCMTQMNIPRVKEFGVPSTGGNTCVANFVHTTIFPNGPKDFEDKDDGRVIGNLVGLNLFDDYGLWCNYGQLHRDFTYCYSKGVFKRVLPAEEYAEIRWDQLEAGDVNFIKDFYYRLAHRVGELSHLADGSYAIAERWNLGEEYWGYAKNKLWSPFGYPVHHANEASAQVGSIVNCMFNRDCMTHTHINFIGSGLPLKLQREVAKELFGSEDAYDETKNYTPINDAKIKYAKWSLLRVCLHNAVTLCNWVWPMTVSPLKSRNYRGDLALEAKFFKAITGEEMTQEKLDLAAERIFTLHRAYTVKLMQTKDMRNEHDLICSWVFDKDPQIPVFTEGTDKMDRDDMHASLTMFYKEMGWDPQLGCPTRETLQRLGLEDIAADLAAHNLLPA |  |  |  |  |  |  | 5.09 | 10.2 ± 4.6 |  | 7.93 ± 1.3 |  | 
6 | MANLLNKFIMTRILAAITLLLSIVLTILVTIFCSVPIIIAGIVKLLLPVPVIWRKVSRFCDFMMYCWCEGLAVLLHLNPHLQWEVHGLEGLSKKNWYLLICNHRSWADIVVLCVLFRKHIPMNKYFLKQQLAWVPFLGLACWSLDMPFMKRYSRAYLLRHPERRGKDVETTRRSCEKFRLHPTTIVNFVEGSRFTQEKHQQTHSTFQNLLPPKAAGIAMALNVLGKQFDKLLNVTLCYPDNNRQPFFDMLSGKLTRIVVHVDLQPIADELHGDYINDKSFKRHFQQWLNSLWQEKDRLLTSLMSSQRQNK |  | 6.87 |  |  |  |  | 6.03 |  |  | 10.5 |  | 13.6
7 | MANPTVIKLQDGNVMPQLGLGVWQASNEEVITAIQKALEVGYRSIDTAAAYKNEEGVGKALKNASVNREELFITTKLWNDDHKRPREALLDSLKKLQLDYIDLYLMHWPVPAIDHYVEAWKGMIELQKEGLIKSIGVCNFQIHHLQRLIDETGVTPVINQIELHPLMQQRQLHAWNATHKIQTESWSPLAQGGKGVFDQKVIRDLADKYGKTPAQIVIRWHLDSGLVVIPKSVTPSRIAENFDVWDFRLDKDELGEIAKLDQGKRLGPDPDQFGG | 5.16 ± 0.27 | 5.3 ± 0.9 | 5.36 ± 0.068 | 5.7 ± 0.23 | 5.17 ± 0.29 | 3.7 ± 0.23 | 6.23 ± 0.55 | 11.8 ± 1.7 | 4.8 ± 0.42 | 8.91 ± 0.27 | 5.85 ± 0.2 | 13.3 ± 2.8
8 | MANVEIYTKETCPYCHRAKALLSSKGVSFQELPIDGNAAKREEMIKRSGRTTVPQIFIDAQHIGGCDDLYALDARGGLDPLLK [P0AC62] | 6.58 | 5.58 ± 0.71 | 4.93 ± 0.091 | 5.33 ± 0.32 | 5.71 ± 1.9 | 2.89 ± 0.5 | 5.23 ± 1 |  | 4.68 | 9.44 ± 2.5 | 5.35 ± 0.39 | 12.6 ± 1.1
